Experimental data from the supplement of paper PMC7125110.
± gives the standard error. For some of these results: Fewer inactive variants are shown than the library holds.

B1: glmS ribozyme (parent)
chain: AUAAAAGCGCCAGAACUACAGAAAUGUAGUUGACGAGGAGGAGGUUUAUCGAAUUUUCGGCGGAUGCCUCCAAA

Legend:
Conditions in all cases: with glucosamine-6-phosphate
glucosamine-6-phosphate [1] = variants of: B1; assay: kcat; higher = faster cleavage; RNA array
Outline: (§1)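 E. coli RNA polymerase transcribed barcoded ribozyme variants in situ on sequenced MiSeq chips, which were tracked via a hybridised Cy3 probe at 37 °C. Tiles were imaged over ~14 h after glucosamine-6-phosphate (40 μM to 10 mM) in HEPES/KCl/Mg(OAc)2 buffer was flowed in. Normalised per-tile medians were fit to one- or two-exponential decays for kobs, and kcat and KM came from weighted Michaelis–Menten fits.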

glucosamine-6-phosphate [2] = variants of: B1; assay: KM; higher = weaker cofactor use; RNA array
Outline: as §1

glucosamine-6-phosphate [3] = variants of: B1; assay: self-cleavage kobs at 40 uM GlcN6P; higher = faster cleavage; RNA array
Outline: as §1

glucosamine-6-phosphate [4] = variants of: B1; assay: self-cleavage kobs at 160 uM GlcN6P; higher = faster cleavage; RNA array
Outline: as §1

glucosamine-6-phosphate [5] = variants of: B1; assay: self-cleavage kobs at 640 uM GlcN6P; higher = faster cleavage; RNA array
Outline: as §1

glucosamine-6-phosphate [6] = variants of: B1; assay: self-cleavage kobs at 2500 uM GlcN6P; higher = faster cleavage; RNA array
Outline: as §1

glucosamine-6-phosphate [7] = variants of: B1; assay: self-cleavage kobs at 10000 uM GlcN6P; higher = faster cleavage; RNA array
Outline: as §1

Variant	kcat (glucosamine-6-phosphate [1]) [s⁻¹]	KM (glucosamine-6-phosphate [2]) [µM]	self-cleavage kobs at 40 uM GlcN6P (glucosamine-6-phosphate [3]) [s⁻¹]	self-cleavage kobs at 160 uM GlcN6P (glucosamine-6-phosphate [4]) [s⁻¹]	self-cleavage kobs at 640 uM GlcN6P (glucosamine-6-phosphate [5]) [s⁻¹]	self-cleavage kobs at 2500 uM GlcN6P (glucosamine-6-phosphate [6]) [s⁻¹]	self-cleavage kobs at 10000 uM GlcN6P (glucosamine-6-phosphate [7]) [s⁻¹]
U56G G66U	0.000858 ± 0.00012	1780 ± 400	3.12e-05 ± 8.7e-06	6.25e-05 ± 7.4e-06	0.000237 ± 2.4e-05	0.000576 ± 5.7e-05	0.000682 ± 6.4e-05
U56G G66C	0.000388 ± 2.1e-05	1800 ± 300			9.51e-05 ± 3.1e-05	0.000244 ± 4.9e-05	0.000325 ± 3.9e-05
C61A U65A	< 1e-05					< 1e-05	
C61A C67G	2.3e-05 ± 5e-06				2.63e-05 ± 1.3e-05		
C61A C67A	6.65e-05 ± 1.4e-05			5.31e-05 ± 1.5e-05	5.15e-05 ± 1.8e-05	7.72e-05 ± 1.8e-05	
G59A C67A	1.53e-05 ± 3.7e-06						
U56G C68A	2.79e-05 ± 2.6e-06					2.72e-05 ± 1.3e-05	
G59A U69C	5.07e-05 ± 2.8e-06	943 ± 240					4.7e-05 ± 1e-05
U55C C61G	< 1e-05		< 1e-05				< 1e-05
U55G C58G	0.000161 ± 1.7e-05	6790 ± 1400				4.5e-05 ± 8.6e-06	9.57e-05 ± 1.1e-05
G59U C70U	9.84e-05 ± 6.1e-06	899 ± 210			4.56e-05 ± 9.2e-06	6.69e-05 ± 8.1e-06	9.36e-05 ± 8.8e-06
U57A U69G	4.58e-05 ± 6.6e-06			3.35e-05 ± 1.6e-05	5.15e-05 ± 1.3e-05	3.88e-05 ± 1.3e-05	
A64U U65G	1.26e-05 ± 1e-06						
C61G U69C C70G	5.75e-05 ± 1.9e-05			5.95e-05 ± 2.1e-05	6.36e-05 ± 2.5e-05	8.71e-05 ± 4.1e-05	
U56C C71A	4.36e-05 ± 8.2e-06					5.14e-05 ± 1.2e-05	3.76e-05 ± 9e-06
U57A C61G	1.36e-05 ± 5.5e-06						
U65C C70U	0.000844 ± 0.0001	2930 ± 550		3.71e-05 ± 1e-05	0.000169 ± 2.7e-05	0.000379 ± 7.6e-05	0.000647 ± 0.0001
G62U C71A	< 1e-05		< 1e-05			< 1e-05	
G62U U69A	2.59e-05 ± 3.9e-06						
G66C C67U	2.82e-05 ± 1.9e-06	1800 ± 520					2.37e-05 ± 7.3e-06
U56A C67G	0.00221 ± 0.00081	1310 ± 590	6.73e-05 ± 6.8e-06	0.000246 ± 2.7e-05	0.000684 ± 0.00015	0.000905 ± 0.00024	0.00313 ± 0.00047
G60A C61A	< 1e-05		< 1e-05	< 1e-05			
U56A A64C	6.42e-05 ± 1e-05		< 1e-05			6.08e-05 ± 1.1e-05	5.71e-05 ± 9.1e-06

Variant	kcat (glucosamine-6-phosphate [1]) [s⁻¹]	KM (glucosamine-6-phosphate [2]) [µM]	self-cleavage kobs at 40 uM GlcN6P (glucosamine-6-phosphate [3]) [s⁻¹]	self-cleavage kobs at 160 uM GlcN6P (glucosamine-6-phosphate [4]) [s⁻¹]	self-cleavage kobs at 640 uM GlcN6P (glucosamine-6-phosphate [5]) [s⁻¹]	self-cleavage kobs at 2500 uM GlcN6P (glucosamine-6-phosphate [6]) [s⁻¹]	self-cleavage kobs at 10000 uM GlcN6P (glucosamine-6-phosphate [7]) [s⁻¹]
U56A A64U	5.11e-05 ± 2e-06	1250 ± 250				3.54e-05 ± 1.6e-05	4.52e-05 ± 1e-05
G59A C70U	0.000157 ± 9e-06	1970 ± 320			4.24e-05 ± 8e-06	8.29e-05 ± 9.8e-06	0.000133 ± 1.1e-05
G59A C70G	2.32e-05 ± 4.8e-06				2.83e-05 ± 1.3e-05		
A64U U69G	4.17e-05 ± 1.2e-05			4.51e-05 ± 1.8e-05		5.01e-05 ± 1.9e-05	
A64U U69C	5.01e-05 ± 2.7e-06	1050 ± 310					4.48e-05 ± 1.3e-05
U55A C68A	7.99e-05 ± 1.6e-05			6.93e-05 ± 1.2e-05	8.04e-05 ± 2.1e-05	6.96e-05 ± 1.3e-05	
U55A U69G	6.88e-05 ± 8.3e-06			8.26e-05 ± 1.6e-05	6.99e-05 ± 1.2e-05	7.05e-05 ± 8.6e-06	5.04e-05 ± 1.3e-05
C61G C67U	2.12e-05 ± 5.2e-06						
C61G C67A	2.67e-05 ± 6.5e-06				3.33e-05 ± 1.4e-05		
A64C C70U	5.98e-05 ± 9.8e-07	1590 ± 110	< 1e-05			3.63e-05 ± 9.6e-06	5.16e-05 ± 6.8e-06
A64G G66C	0.00291 ± 0.001		4.68e-05 ± 1.7e-05		0.00057 ± 0.00011	0.00103 ± 0.00022	0.0027 ± 0.00051
A64G G66A	0.0158 ± 0.0059	936 ± 460	0.000837 ± 9.3e-05	0.00197 ± 0.00028	0.00554 ± 0.0008	0.0124 ± 0.0025	0.0215 ± 0.0052
U57G G59U U65G C68U	1.85e-05 ± 4.8e-06						
G59U C68U	1.5e-05 ± 6.2e-06		< 1e-05			2.67e-05 ± 1.3e-05	
G59U U69G	2.94e-05 ± 8.4e-06						
U56G U69C C70A	6.04e-05 ± 1.7e-05			4.37e-05 ± 1.6e-05	8.99e-05 ± 2.7e-05	6.56e-05 ± 1.5e-05	
U57C C70A	1.97e-05 ± 8.4e-06						
U57C C70G	1.91e-05 ± 3.1e-06						
C58U U69C	2.82e-05 ± 7e-06					5.56e-05 ± 1.6e-05	2.52e-05 ± 5.6e-06
G59U C67G	1.65e-05 ± 6.4e-06						
G59U C67A	1.11e-05 ± 3.2e-06		< 1e-05				
A64G U65G G66U C70G	2.23e-05 ± 6.3e-06						
